Assay: Burst release of lysozyme from coated nanoparticles in release media
Type: physicochemical
Settings: PBS with 0.2 wt % Tween-20 versus PBS, 37° C.

Substance: lysozyme
- increase of burst release in presence of surfactant: 25%

From patent US11731099B2, “Method for controlling encapsulation efficiency and burst release of water soluble molecules from nanoparticles and microparticles produced by inverse flash nanoprecipitation” (The Trustees of Princeton University, priority 2018, dated 2023)
